Assay results: patent publication US20080050387A1, “Non-Androgen Dependent Roles for Androgen Receptor and Non-Androgen Related Inhibitors of Androgen Receptor” (priority 2003, published 2008)

Experiments:
[1] = system: AR; assay: AR transactivation luciferase assay in COS-1 cells with GSK3β; format: cell-based, human
Procedure: (§1) COS-1 and PC-3 cells were maintained in early to mid-log phase in DMEM medium, supplemented with 10% fetal bovine serum (FBS), 50 units/ml penicillin and 50 μg/ml streptormnycin in incubators with humidified air and 5% carbon dioxide at 37° C. LNCaP cells were maintained in RPMI (GIBCO/BRL) medium. Twenty-four h prior to transfection, cells washed with Hanks' buffered saline solution, trypsinized, and seeded to be a density of 40-60% confluence for transfection. Cells in 12 well plates were refed with fresh medium 2 hours before transfection and transfected according to the “SuperFect Transfection” instructions (QIAGEN). After 2-3 h incubation, cells were treated with medium supplemented with charcoal-dextran treated FBS containing either ethanol or ligands. Cells were further incubated at 37° C. for 24 h, washed with PBS, and harvested.
Target sequence in this assay (P10275 with tags, fused parts or gaps DEL79-80/DUP473-473): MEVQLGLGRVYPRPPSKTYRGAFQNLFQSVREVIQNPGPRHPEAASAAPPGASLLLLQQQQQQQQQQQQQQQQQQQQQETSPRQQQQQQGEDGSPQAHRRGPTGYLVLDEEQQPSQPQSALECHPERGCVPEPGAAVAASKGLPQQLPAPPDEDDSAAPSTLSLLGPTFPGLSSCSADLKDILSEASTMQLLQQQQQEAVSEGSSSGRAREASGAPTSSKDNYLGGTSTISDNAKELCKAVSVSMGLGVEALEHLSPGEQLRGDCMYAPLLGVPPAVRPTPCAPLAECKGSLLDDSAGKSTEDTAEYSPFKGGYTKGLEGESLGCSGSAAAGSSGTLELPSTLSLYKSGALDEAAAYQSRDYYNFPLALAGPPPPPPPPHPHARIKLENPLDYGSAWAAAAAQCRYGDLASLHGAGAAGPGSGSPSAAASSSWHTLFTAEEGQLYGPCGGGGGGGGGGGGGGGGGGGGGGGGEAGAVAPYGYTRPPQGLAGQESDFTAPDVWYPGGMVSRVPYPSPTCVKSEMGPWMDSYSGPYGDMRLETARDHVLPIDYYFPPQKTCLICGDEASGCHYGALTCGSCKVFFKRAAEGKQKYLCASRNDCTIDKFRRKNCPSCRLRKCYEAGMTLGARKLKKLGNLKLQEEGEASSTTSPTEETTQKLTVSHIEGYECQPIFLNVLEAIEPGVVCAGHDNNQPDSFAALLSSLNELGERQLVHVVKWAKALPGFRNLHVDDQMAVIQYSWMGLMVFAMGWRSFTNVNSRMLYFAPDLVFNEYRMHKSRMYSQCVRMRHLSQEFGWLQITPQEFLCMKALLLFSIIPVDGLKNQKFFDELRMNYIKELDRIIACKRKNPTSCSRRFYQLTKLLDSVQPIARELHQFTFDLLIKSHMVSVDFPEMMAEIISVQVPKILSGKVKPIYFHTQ

[2] = molecular target: T1, human glucocorticoid receptor (hGR) (Homo sapiens, UniProt P04150); assay: hGR transactivation luciferase assay in COS-1 cells with GSK3β; format: cell-based
T1 construct: expressed in transfected cells; host or cells: COS-1
T1 sequence (P04150 1-777): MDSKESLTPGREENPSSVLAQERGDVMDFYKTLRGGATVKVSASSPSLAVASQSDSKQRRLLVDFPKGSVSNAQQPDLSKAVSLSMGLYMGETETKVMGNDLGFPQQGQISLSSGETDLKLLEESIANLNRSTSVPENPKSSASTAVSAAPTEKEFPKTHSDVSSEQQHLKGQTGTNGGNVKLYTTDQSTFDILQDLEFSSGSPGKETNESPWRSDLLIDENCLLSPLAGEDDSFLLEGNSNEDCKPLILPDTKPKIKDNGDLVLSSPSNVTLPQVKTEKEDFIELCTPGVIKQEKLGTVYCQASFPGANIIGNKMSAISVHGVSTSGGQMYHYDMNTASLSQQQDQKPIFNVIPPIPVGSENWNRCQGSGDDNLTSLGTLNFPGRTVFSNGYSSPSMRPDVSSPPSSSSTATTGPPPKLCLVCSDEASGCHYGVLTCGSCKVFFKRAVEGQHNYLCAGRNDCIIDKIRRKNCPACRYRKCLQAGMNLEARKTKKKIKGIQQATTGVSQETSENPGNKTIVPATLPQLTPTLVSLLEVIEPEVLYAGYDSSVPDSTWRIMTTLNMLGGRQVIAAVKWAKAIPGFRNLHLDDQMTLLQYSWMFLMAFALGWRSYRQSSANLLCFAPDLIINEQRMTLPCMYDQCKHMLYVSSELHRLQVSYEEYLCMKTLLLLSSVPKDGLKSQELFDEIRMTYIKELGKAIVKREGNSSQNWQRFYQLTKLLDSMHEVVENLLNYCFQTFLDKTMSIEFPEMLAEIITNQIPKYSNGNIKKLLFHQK
Procedure: as §1

[3] = system: AR; assay: AR transactivation luciferase assay in LNCaP cells with GSK3β; format: cell-based, human; details: MMTV-Luc, DHT
Procedure: as §1
Target sequence in this assay (P10275 whole entry T878A, the tested form may be a part): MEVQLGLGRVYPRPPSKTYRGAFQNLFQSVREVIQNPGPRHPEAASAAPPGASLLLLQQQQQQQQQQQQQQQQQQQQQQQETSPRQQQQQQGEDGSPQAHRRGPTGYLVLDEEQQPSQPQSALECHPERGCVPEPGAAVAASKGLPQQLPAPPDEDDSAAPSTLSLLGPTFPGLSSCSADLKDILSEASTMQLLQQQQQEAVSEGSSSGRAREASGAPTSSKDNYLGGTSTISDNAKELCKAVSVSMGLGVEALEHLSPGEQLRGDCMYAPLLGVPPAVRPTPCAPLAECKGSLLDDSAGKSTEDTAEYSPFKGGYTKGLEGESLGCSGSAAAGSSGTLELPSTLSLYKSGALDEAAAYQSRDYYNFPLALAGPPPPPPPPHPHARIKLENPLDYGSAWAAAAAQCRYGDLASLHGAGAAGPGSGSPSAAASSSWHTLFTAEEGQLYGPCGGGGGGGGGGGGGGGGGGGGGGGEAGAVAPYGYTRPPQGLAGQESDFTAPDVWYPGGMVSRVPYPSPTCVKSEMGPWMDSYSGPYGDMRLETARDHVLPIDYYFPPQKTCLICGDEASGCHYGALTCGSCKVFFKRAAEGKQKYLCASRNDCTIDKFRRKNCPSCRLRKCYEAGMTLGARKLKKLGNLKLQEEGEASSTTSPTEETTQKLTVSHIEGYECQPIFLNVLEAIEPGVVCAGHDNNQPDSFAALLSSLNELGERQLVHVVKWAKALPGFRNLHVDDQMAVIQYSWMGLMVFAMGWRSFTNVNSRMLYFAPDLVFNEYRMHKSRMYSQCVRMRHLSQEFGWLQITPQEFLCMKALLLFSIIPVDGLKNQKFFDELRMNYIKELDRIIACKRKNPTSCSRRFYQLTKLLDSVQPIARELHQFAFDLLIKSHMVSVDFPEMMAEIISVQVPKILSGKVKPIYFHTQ

[4] = system: PSA expression in LNCaP cells; assay: PSA promoter activity and PSA mRNA (Northern blot) in LNCaP cells with GSK3β; format: cell-based, human
Procedure: as §1

[5] = system: AR; assay: In vitro kinase assay of GSK3β on AR fragments; format: biochemical, human; details: 30 min at 30° C.
[6] = system: AR AF-1 / AF-2; assay: GAL4-ARN / GAL4-AR-LBD pG5-Luc reporter assay in COS-1 cells; format: cell-based, human
Procedure: as §1

[7] = system: AR; assay: AR expression by immunoblot in LNCaP cells transfected with GSK3β; format: cell-based, human; details: pCMV-GSK3β vs pCMV vector
Target sequence in this assay (P10275 whole entry T878A, the tested form may be a part): as above

[8] = system: AR; assay: GST pull-down assay GSK3β / AR; format: binding, human; details: presence or absence of DHT
Procedure: 5 μl of in vitro-translated β5S]-labeled AR was incubated with the GST or GST-GSK3β bound to glutathione-Sepharose beads in a pull-down assay. After extensive washing, bead-bound protein complexes were loaded onto 8% SDS-PAGE and analyzed by Phosphorlmager. The input represents 20% amount of [^35S]-labeled proteins used in each pull-down assay. […] COS-1 cells were solubilized in RIPA buffer containing 0.5% NP-40 and protease inhibitors. Immunoprecipitation was performed using mouse HA antibody (1:1000) or normal mouse IgG (N-IgG) and then analyzed by Western blot with anti-AR NH27 (1:1000) or anti-GSK3β (1:1000) antibodies, followed by incubation with AP conjugate goat anti-rabbit or rabbit anti-mouse IgM antibodies, and visualized with AP conjugate kit (Bio-Rad).
Target sequence in this assay (P10275 with tags, fused parts or gaps DEL79-80/DUP473-473): as the sequence (P10275 with tags, fused parts or gaps DEL79-80/DUP473-473) above
Target sequence in this assay (P49841 whole entry partner, the tested form may be a part): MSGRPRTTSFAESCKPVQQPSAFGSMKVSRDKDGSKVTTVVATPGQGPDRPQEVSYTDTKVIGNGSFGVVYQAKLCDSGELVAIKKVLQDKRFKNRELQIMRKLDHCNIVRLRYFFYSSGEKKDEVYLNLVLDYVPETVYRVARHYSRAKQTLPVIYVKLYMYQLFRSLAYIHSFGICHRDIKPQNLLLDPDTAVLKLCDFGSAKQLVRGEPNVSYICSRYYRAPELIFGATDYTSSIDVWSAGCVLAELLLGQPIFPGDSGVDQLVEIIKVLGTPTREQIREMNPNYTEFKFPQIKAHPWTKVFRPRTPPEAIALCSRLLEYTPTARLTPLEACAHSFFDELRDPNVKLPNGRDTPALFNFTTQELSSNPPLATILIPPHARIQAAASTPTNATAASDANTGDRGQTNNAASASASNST

B1: GSK3β: glycogen synthase kinase 3β, serine/threonine protein kinase (SEQ ID NO:5), wild type (protein)
chain: MSGRPRTTSFAESCKPVQQPSAFGSMKVSRDKDGSKVTTVVATPGQGPDRPQEVSYTDTKVIGNGSFGVVYQAKLCDSGELVAIKKVLQDKRFKNRELQIMRKLDHCNIVRLRYFFYSSGEKKDEVYLNLVLDYVPETVYRVARHYSRAKQTLPVIYVKLYMYQLFRSLAYIHSFGICHRDIKPQNLLLDPDTAVLKLCDFGSAKQLVRGEPNVSYICSRYYRAPELIFGATDYTSSIDVWSAGCVLAELLLGQPIFPGDSGVDQLVEIIKVLGTPTREQIREMNPNYTEFKFPQIKAHPWTKDSSGTGHFTSGVRVFRPRTPPEAIALCSRLLEYTPTARLTPLEACAHSFFDELRDPNVKLPNGRDTPALFNFTTQELSSNPPLATILIPPHARIQAAASTPTNATAASDANTGDRGQTNNAASASASNST
[1]; ARE4-Luc, 10 nM DHT
  AR-mediated transcription of the luciferase reporter reduced by: about 40%
[1]; MMTV-Luc
  DHT-mediated AR transactivation / AR transcriptional activity: inhibits
[2]
  hGR transactivation: failed to inhibit
[3]
  activity of AR: reduced
[4]; Northern blot, 10 nM DHT
  expression of PSA mRNA: reduced
[4]; PSA-luc
  DHT-mediated induction of transcription from the PSA promoter: repressed
[5]
  phosphorylation of GST-AR38-560 (N-terminus): significantly phosphorylated
  phosphorylation of GST-AR-DBD-LBD or 6His-AR-LBD: slightly phosphorylated
[6]
  activity of GAL4-AR-LBD: did not influence
  constitutive transcriptional activity of GAL4-ARN: inhibited
[7]
  endogenous expression of AR: little change
[8]
  binding of 35S-methionine-labeled AR to GST-GSK3β: bind specifically
